We go through 1 molecule from US20030108912, “Liver enriched transcription factor” (published 2003).

The target in the data set is T1, HNF-4 Hph I truncation (Rattus norvegicus, UniProt P22449 SEQ:1-219).
T1 chain: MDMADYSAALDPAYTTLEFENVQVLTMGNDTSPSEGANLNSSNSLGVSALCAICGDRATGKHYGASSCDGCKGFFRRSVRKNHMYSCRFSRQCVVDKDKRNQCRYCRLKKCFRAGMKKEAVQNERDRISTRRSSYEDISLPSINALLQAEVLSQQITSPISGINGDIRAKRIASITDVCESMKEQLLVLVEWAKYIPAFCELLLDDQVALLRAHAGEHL
Nature of the data set: EMSA; zinc fingers present, dimerization region absent. As to conditions: label: 32P; four-base 5' overhangs. A general note: Mobility shift assays separate free from complexed probe on a gel.

B1: APF1 (dsDNA)
DNA 1: TCGAGCGCTGGGCAAAGGTCACCTGC
DNA 2: GCAGGTGACCTTTGCCCAGCGCTCGA
Consider B1, for which the binding result is “no binding”.
